Reference: patent US20240390512A1 (Daiichi Sankyo, published 2024)

T1: EC5 deletion mutant of human CDH6, on cells (human, UniProt P55285 54-790)
T1 construct: in p3×FLAG-CMV-9; also called EC5-deleted hCDH6
T1 sequence: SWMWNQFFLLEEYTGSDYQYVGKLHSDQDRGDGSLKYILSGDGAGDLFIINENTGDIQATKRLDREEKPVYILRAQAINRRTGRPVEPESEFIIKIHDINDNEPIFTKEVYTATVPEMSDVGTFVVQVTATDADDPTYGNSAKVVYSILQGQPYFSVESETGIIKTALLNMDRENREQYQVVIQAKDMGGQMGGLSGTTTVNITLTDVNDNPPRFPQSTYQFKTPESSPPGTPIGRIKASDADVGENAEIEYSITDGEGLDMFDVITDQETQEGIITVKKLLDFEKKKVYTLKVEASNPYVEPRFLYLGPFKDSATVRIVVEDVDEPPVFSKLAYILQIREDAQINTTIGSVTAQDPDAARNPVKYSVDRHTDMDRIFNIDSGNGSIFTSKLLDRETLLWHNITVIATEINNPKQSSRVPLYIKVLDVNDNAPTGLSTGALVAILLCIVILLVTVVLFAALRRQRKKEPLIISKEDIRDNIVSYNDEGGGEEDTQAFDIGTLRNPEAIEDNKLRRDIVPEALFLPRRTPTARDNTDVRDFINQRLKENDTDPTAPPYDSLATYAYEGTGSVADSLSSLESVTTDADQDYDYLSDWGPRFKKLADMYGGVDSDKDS

T2: human CDH6 (cadherin-6), full-length, on cells (human, UniProt P55285 54-790)
T2 construct: also called hCDH6; full-length hCDH6
T2 sequence: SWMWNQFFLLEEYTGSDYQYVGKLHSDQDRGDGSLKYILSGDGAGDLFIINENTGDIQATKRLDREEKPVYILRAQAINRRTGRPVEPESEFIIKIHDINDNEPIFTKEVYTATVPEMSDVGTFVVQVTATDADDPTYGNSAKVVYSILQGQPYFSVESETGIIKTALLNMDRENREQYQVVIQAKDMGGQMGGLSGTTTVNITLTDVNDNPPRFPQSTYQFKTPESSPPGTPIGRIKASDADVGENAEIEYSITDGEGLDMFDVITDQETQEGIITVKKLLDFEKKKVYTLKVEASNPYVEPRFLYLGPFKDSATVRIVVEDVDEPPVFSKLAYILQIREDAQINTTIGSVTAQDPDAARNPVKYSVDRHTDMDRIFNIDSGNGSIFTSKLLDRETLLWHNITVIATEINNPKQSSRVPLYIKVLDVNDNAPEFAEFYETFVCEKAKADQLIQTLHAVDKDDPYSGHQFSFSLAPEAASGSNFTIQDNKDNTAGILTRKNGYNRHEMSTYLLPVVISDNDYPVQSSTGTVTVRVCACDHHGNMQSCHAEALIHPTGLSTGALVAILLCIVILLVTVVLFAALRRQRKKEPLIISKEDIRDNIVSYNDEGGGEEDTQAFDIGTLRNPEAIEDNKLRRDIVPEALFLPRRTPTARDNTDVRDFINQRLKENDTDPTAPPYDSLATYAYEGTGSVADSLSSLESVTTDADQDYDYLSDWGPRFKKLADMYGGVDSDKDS

T3: rat CDH6, on cells (rat, UniProt P55280 54-789)
T3 construct: also called rCDH6; NP_037059
T3 sequence: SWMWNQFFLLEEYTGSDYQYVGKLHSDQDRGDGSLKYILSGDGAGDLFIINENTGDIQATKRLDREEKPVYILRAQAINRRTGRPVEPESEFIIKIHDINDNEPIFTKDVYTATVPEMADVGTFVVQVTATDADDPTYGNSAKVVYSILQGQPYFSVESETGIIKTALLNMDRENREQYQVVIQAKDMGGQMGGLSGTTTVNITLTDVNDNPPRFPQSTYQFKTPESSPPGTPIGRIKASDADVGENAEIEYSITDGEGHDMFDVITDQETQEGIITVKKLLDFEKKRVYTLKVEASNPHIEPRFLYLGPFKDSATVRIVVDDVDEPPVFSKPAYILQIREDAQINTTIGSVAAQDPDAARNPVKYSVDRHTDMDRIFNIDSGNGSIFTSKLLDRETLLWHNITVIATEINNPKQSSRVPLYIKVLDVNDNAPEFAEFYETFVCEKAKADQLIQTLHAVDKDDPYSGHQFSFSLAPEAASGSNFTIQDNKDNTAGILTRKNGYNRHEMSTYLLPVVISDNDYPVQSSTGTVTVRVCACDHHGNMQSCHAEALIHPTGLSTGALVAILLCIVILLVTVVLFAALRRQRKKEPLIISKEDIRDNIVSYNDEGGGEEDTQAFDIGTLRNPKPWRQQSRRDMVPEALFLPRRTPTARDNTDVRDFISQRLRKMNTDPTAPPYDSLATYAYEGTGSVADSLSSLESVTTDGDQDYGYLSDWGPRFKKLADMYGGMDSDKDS

T4: EC3 deletion mutant of human CDH6, on cells (human, UniProt P55285 54-790)
T4 construct: in p3×FLAG-CMV-9; also called EC3-deleted hCDH6
T4 sequence: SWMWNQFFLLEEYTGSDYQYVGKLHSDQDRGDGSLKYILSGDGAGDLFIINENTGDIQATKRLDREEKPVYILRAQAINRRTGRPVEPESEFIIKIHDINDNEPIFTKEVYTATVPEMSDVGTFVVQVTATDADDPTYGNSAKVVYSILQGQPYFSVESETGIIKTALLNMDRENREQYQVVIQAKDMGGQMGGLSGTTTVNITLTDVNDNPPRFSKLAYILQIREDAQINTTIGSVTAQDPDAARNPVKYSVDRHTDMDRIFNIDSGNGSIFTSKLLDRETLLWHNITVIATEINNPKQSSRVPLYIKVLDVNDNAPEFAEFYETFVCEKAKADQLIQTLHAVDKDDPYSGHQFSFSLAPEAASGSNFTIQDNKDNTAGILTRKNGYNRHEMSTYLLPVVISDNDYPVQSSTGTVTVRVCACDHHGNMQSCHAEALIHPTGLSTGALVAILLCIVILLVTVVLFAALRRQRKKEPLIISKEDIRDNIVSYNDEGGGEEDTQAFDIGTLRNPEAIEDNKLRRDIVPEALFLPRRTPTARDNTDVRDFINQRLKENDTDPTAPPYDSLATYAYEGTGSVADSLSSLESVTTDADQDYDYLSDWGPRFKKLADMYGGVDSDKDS

T5: Recombinant Human CDH6 Fc His chimera (R&D Systems, Inc.) (human, UniProt P55285 54-615)
T5 construct: Bought reagent; also called the antigen; human CDH6 antigen; Fc part of the bought chimera not given; His tag of the bought chimera
T5 sequence: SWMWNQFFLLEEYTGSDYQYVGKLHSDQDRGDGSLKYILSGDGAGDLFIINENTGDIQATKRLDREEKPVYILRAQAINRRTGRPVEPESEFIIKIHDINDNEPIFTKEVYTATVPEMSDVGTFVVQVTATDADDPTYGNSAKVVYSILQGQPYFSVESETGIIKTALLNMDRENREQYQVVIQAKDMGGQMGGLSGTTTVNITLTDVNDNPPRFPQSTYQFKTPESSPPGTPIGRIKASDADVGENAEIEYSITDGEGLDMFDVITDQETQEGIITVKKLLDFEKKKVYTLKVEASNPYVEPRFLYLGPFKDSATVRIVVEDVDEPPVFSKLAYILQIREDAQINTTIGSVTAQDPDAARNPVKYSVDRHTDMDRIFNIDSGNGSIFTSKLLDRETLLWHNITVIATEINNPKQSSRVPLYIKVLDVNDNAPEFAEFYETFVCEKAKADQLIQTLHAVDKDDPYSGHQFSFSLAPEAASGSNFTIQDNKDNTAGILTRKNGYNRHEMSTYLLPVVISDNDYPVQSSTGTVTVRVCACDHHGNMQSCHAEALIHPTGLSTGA

T6: mouse CDH6, on cells (mouse, UniProt P97326 54-790)
T6 construct: also called mCDH6; NP_031692
T6 sequence: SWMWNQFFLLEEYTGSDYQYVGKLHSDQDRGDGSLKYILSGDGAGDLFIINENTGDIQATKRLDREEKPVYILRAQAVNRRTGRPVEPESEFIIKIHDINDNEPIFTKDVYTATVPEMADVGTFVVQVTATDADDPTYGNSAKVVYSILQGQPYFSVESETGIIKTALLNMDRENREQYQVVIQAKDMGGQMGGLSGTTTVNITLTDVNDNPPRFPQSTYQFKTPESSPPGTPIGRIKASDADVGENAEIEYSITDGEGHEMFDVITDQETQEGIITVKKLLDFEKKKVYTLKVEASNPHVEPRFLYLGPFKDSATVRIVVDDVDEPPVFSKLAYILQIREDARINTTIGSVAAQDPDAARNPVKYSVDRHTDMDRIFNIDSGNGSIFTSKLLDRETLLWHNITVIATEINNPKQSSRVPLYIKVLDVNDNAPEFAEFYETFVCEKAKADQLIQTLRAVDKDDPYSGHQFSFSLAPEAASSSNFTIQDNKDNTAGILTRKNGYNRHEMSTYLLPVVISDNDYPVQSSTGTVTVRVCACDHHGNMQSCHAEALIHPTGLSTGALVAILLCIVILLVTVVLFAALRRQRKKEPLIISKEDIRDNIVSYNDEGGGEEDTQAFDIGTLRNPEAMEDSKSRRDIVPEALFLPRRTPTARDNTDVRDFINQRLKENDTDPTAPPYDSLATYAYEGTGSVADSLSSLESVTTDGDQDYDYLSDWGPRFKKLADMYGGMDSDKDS


What was measured:
[1] = biological target: T1, EC5 deletion mutant of human CDH6, on …; experiment: flow cytometry; 293α cells transfected with EC5-deleted hCDH6 (open line) against untransfected 293α cells (shaded); APC anti-human IgG goat F(ab')2; antibody concentration not given
[2] = biological target: T2, human CDH6 (cadherin-6), full-length, …; experiment: flow cytometry; 293α cells transfected with full-length hCDH6 (open line) against untransfected 293α cells (shaded); APC anti-human IgG goat F(ab')2; antibody concentration not given
[3] = biological target: T3, rat CDH6, on cells; experiment: flow cytometry; 293α cells transfected with rCDH6; PE anti-human IgG Fc(gamma) goat F(ab')
[4] = biological target: T4, EC3 deletion mutant of human CDH6, on …; experiment: flow cytometry; 293α cells transfected with EC3-deleted hCDH6 (open line) against untransfected 293α cells (shaded); APC anti-human IgG goat F(ab')2; antibody concentration not given
[5] = biological target: T5, Recombinant Human CDH6 Fc His chimera …; experiment: SPR (Biacore T200); antigen captured by immobilized anti-His antibody, antibody as analyte 0.391 to 100 nM; steady state affinity model
[6] = biological target: T6, mouse CDH6, on cells; experiment: flow cytometry; 293α cells transfected with mCDH6; PE anti-human IgG Fc(gamma) goat F(ab')

| Binder | binding result [1] | binding result [2] | binding result [3] | binding result [4] | Kd [5] [nM] | binding result [6] |
| --- | --- | --- | --- | --- | --- | --- |
| anti-CDH6 antibody NOV0712 (antibody, human IgG1, kappa, V domains shown, Made after WO 2016/024195; also called NOV0712 antibody) VH: QVQLLESGGGLVQPGGSLRLSCAASGFTFSSHGMHWVRQAPGKGLEWVSVISGSGSNTGYADSVKGRFTISRDNSKNTLYLQMNSLRAEDTAVYYCARQWGSYAFDSWGQGTLVTVSS VL: DIQMTQSPSSLSASVGDRVTITCRASQSISSYLNWYQQKPGKAPKLLIYAVSTLQSGVPSRFSGSGSGTDFTLTISSLQPEDFATYYCQQSGTFPPTTFGQGTKVEIKR | no binding | binds | – | – | – | – |
| humanized anti-CDH6 antibody H04L02 (antibody, human IgG1, kappa, V domains shown, hH04 heavy chain and hL02 light chain, human IgG1 / kappa; also called H04L02 antibody) VH: QVQLVQSGAEVKKPGASVKVSCKASGYTFTRNFMHWIRQAPGQGLEWMGWIYPGDGETEYAQKFQGRVTLTADRSTSTAYMELSSLRSEDTAVYYCARGVYGGFAGGYFDFWGQGTLVTVSS VL: DIQMTQSPSSLSASVGDRVTITCKASQNIYKNLAWYQQKPGKAPKLLIYDANTLQTGVPSRFSGSGSGSDFTLTISSLQPEDFATYFCQQYYSGWAFGQGTKVEIKR | – | – | no binding (tested: about 4, unit not printed on the axis) | no binding | 1.1 | no binding (tested: about 4, unit not printed on the axis) |
